From patent US20190135876A1 (TRELLIS BIOSCIENCE, published 2019)

T1: RSV G[169-198] (respiratory syncytial virus)
T1 construct: also called synthetic RSV G peptide
T1 peptide: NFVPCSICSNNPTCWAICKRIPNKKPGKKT

T2: CX3CR1 (human, UniProt P49238 1-355)
T2 sequence: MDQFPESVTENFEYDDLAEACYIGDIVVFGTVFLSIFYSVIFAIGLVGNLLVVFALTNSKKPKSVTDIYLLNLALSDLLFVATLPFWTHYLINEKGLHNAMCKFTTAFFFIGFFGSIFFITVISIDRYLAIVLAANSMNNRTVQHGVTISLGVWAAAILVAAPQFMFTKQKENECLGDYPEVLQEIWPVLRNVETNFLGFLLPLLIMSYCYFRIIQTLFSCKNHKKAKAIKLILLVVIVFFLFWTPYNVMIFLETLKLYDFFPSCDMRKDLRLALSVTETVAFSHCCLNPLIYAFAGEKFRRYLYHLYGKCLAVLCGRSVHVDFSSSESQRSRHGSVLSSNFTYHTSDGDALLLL

B1: RSV G[161-197] (peptide)
peptide: MGNDFHFEVFNFVPCSICSNNPTCWAICKRIPNKKPGKKHHHHHH

Assays:
CX3CR1 (human) = CX3CR1 (human) (UniProt P49238); test: cell-based or functional assay; details: scale: chemotactic index
RSV G[169-198] = biological target: T1, RSV G[169-198]; test: complex formation and X-ray crystal structure
From the text: Diffraction data from a single crystal were processed with HKL2000.

CX3CR1 [1] = biological target: T2, CX3CR1; test: cell-based or functional assay
CX3CR1 [2] = biological target: T2, CX3CR1; test: cell-based or functional assay; remark: listed apart in the source
RSV G[161-197] = biological target: B1; test: cell-based or functional assay

Molecule	Chemotactic activity (THP-1 chemotaxis assay, duplicate assays, standard deviation in parentheses) (CX3CR1 [1])	also measured
anti-CX3CR1 rabbit polyclonal antibody (ThermoFisher Scientific Cat# PAS-19910)		chemotactic index of THP-1 cells pre-incubated with anti-CX3CR1 antibody, toward 5 nM RSV G[161-197] (CX3CR1 (human)): 1.1
scFv 2D10 (scFv, Expressed in Drosophila S2 cells with BiP signal; Twin-Strep tag removed with thrombin before use; A few vector residues probably remain at both ends (RS; ASLVPR); also called recombinant single-chain variable fragment (scFv) of 2D10) scFv: QVQLVQSGPEVKKPGASVRLSCKASGYVFTNYGVSWVRQAPGQGLEWMGWSSPYNGNTYYAQKLKARVTMTTDTSTNTAYMELRSLRSDDTAVYYCGRDMLGVVQAVAGPFDSWGQGTLVTVSSASGGGGSGGGGSGGGGSGGGDTPMTQSPSSVSASVGDRVTISCRASQGISNSLAWYQQKLGKAPQLLIYAASSLQSGVPSRFSGSGSGTDFTLTISSLQPEDFATYYCQQTNTFPFTFGPGTKVEVRR		binding result (RSV G[169-198]): binds
NDFHFEVFNFVPCSICWNNPTCWAICKRIPNKKPGKK [RSV G (CCR) variant S177→W]	1.2 chemotactic index (negative control PBS = 1.0)	
NDFHFKVFNFVPCSICSNNPTCWAICERIPNKKPGKK [RSV G (CCR) variant E166→K + K187 →E]	1.8 chemotactic index (negative control PBS = 1.0)	
NDFHFEVFNFVPCSICSNNPTCWAICKRIPNKKPGKK [Wild type RSV G (CCR)]	6.2 chemotactic index (negative control PBS = 1.0)	
NDFHFKVFNFVPCSICSNNPTCWAICKRIPNKKPGKK [RSV G (CCR) variant E166→K]	1.6 chemotactic index (negative control PBS = 1.0)	
NDFYFEVFNFVPCSICSNNPTCWAICKRIPNKKPGKK [RSV G (CCR) variant H164→Y]	3.8 chemotactic index (negative control PBS = 1.0)	
NDFHFEVFNFVPCSICSNNPTCWAICKRIPNEEPGKK [RSV G (CCR) variant K192→E + K193 →E]	2.5 chemotactic index (negative control PBS = 1.0)	
NDFHFEVFNFVPCSICRNNPTCWAICKRIPNKKPGKK [RSV G (CCR) variant S177→R]	0.9 chemotactic index (negative control PBS = 1.0)	
B1		chemotactic index of THP-1 cells toward 5 nM RSV G[161-197] (CX3CR1 [2]): 4.2 chemotactic index (fold over serum-free media)
mAb 3D3 (antibody, V domains shown) VH: EEQLVESGGGLVQPGRSLRLSCVGSGLRFEEHAMHWVRQAPGRGLEWVSGISWNSGSVGYADSVKGRFTTSRDNAKDILFLEMNTLRSEDTALYFCAIMVATTKNDFHYYKDVWGKGTTVTVSS VL: QIVLTQSPATLSLSPGERATLSCRASQSVSNHLAWYQQKPGQAPRLLIYETSNRATGIPPRFSGSGSGTDFTLTISSLEPEDFAVYYCQQRNNWYTFGQGTKLEIK		chemotactic index of THP-1 cells toward 5 nM RSV G[161-197] pre-incubated with 25 nM mAb (RSV G[161-197]): 1.5 chemotactic index (fold over serum-free media)
mAb 2D10 (antibody, V domains shown) VH: QVQLVQSGPEVKKPGASVRLSCKASGYVFTNYGVSWVRQAPGQGLEWMGWSSPYNGNTYYAQKLKARVTMTTDTSTNTAYMELRSLRSDDTAVYYCGRDMLGVVQAVAGPFDSWGQGTLVTVSS VL: DTPMTQSPSSVSASVGDRVTISCRASQGISNSLAWYQQKLGKAPQLLIYAASSLQSGVPSRFSGSGSGTDFTLTISSLQPEDFATYYCQQTNTFPFTFGPGTKVEVRR		chemotactic index of THP-1 cells toward 5 nM RSV G[161-197] pre-incubated with 25 nM mAb (RSV G[161-197]): 1 chemotactic index (fold over serum-free media)
RSV G ectodomain (G[ecto]) (other) SANHKVTPTTAIIQDATSQIKNTTPTYLTQNPQLGISPSNPSEITSQITTILASTTPGVKSTLQSTTVKTKNTTTTQTQPSKPTTKQRQNKPPSKPNNDFHFEVFNFVPCSICSNNPTCWAICKRIPNKKPGKKTTTKPTKKPTLKTTKKDPKPQTTKSKEVPTTKPTEEPTINTTKTNIITTLLTSNTTGNPELTSQMETFHSTSSEGNPSPSQVSTTSEYPSQPSSPPNTPRQHHHHHHGWSHPQFEKGGGSGGGSGGGSWSHPQFEK		chemotactic index of THP-1 cells toward 5 nM RSV G[ecto] (CX3CR1 [2]): 3.9 chemotactic index (fold over serum-free media)
